The nature of this data set: protein stability index of a GFP-peptide fusion (yeast GPS) (PSI 1-4); higher = more stable; sorted into four equal gates, so the index is relative within each strain. In a few lines: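 The protein stability index of a peptide was calculated by multiplying its read frequency in each gate by that gate's number and adding the products. The peptides were tiled 17-residue stretches of yeast proteins, fused downstream of GFP on a Cherry-expressing plasmid and carried in yeast as a pooled library. Mid-log cultures in leucine-free medium were sorted into four equal gates by GFP/Cherry ratio, and each gate's plasmids were PCR-amplified and Illumina-sequenced.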

± gives the uncertainty stated by the source.

Regarding LDLAGPLLAQLFKTLFK [RPB2], the protein stability index by setting is: (doa10∆) 2.63 ± 0.038; (pdr5∆) 1.25 ± 0.037; (san1∆) 1.25 ± 0.078; (ubr1∆) 1.18 ± 0.031.
As to LDLSRSNGVLNVDNQTS [RPS17A], for the setting “pdr5∆”, the protein stability index was determined as 3.09 ± 0.22.
Turning to LDNMTYSSVAGTVSRVN [RRP4], the protein stability index is, setting by setting: (doa10∆) 2.44 ± 0.049; (pdr5∆) 2.52 ± 0.05; (san1∆) 2.23 ± 0.051; (ubr1∆) 2.21 ± 0.036.
Consider LDPLARVSKDKKSGSLT [FAS2], for which the protein stability index reads like this: (doa10∆) 3.31 ± 0.1; (pdr5∆) 3.2 ± 0.096; (san1∆) 3.22 ± 0.084; (ubr1∆) 3.14 ± 0.16.
On to LDPLTKDPVDFVRQAAM [RPN2], for which the protein stability index reads like this: (doa10∆) 3.39 ± 0.12; (pdr5∆) 3.53 ± 0.14; (san1∆) 3.17 ± 0.2; (ubr1∆) 2.85 ± 0.25.
For LDPYERAIYSYLSGAIP [YDL116W/NUP84], in that order: 2.83 ± 0.12, 3.11 ± 0.082, 3.13 ± 0.098 and 3.11 ± 0.13.
In the same order, the values of LDSGDDQPQSSEAKRTK [BRR2] are 3.31 ± 0.057, 3.26 ± 0.057, 3.25 ± 0.048 and 3.25 ± 0.043.
As for LDSTGFDSTAFNATVDE [MED2], the protein stability index (doa10∆) is 3.08 ± 0.048, the protein stability index (pdr5∆) was 3.27 ± 0.053, the protein stability index (san1∆) is 3.06 ± 0.053 and the protein stability index (ubr1∆) was found to be 3.07 ± 0.038.
For LDTQLNDLRVSLNEKNA [SMC1], in that order: 3.03 ± 0.11, 3.13 ± 0.082, 3.41 ± 0.064 and 3.14 ± 0.09.
For LDVTKEAQANLLTAKHG [RPO21], in that order: 3.23 ± 0.17, 3.46 ± 0.18, 2.8 ± 0.19 and 3.18 ± 0.19.
Turning to LDYQETYVEELFPIVKK [YJL039C/NUP192], the protein stability index came out at 2.81 ± 0.071 (doa10∆), 3.07 ± 0.1 (pdr5∆), 2.87 ± 0.1 (san1∆) and 2.75 ± 0.062 (ubr1∆).
Consider LDYQIGNSESKVEKGVN [LIN1], for which the protein stability index reads like this: (doa10∆) 3.12 ± 0.12; (pdr5∆) 3.4 ± 0.18; (san1∆) 2.92 ± 0.15; (ubr1∆) 3.38 ± 0.13.
For LEAARSEKQNDEEAAGA [PRP8], in that order: 2.37 ± 0.097, 2.04 ± 0.078, 2.61 ± 0.2 and 2.32 ± 0.078.
In the same order, the values of LEAPVKSIENPTQTKGN [YLR335W/NUP2] are 3.04 ± 0.077, 3.17 ± 0.055, 3.15 ± 0.051 and 2.95 ± 0.058.
In the same order, the values of LEDPYKYHYKEEWLNTK [CSN9] are 2.88 ± 0.084, 3.2 ± 0.083, 2.83 ± 0.065 and 3.09 ± 0.072.
Take LEDYVPHQSPDATRVFV [RPB2]: the protein stability index came to 2.82 ± 0.055 (doa10∆), 2.87 ± 0.055 (pdr5∆), 2.97 ± 0.04 (san1∆) and 3.07 ± 0.04 (ubr1∆).
With LEEIRGNPLSIGTLEEI [RPT2], the protein stability index (doa10∆) came out at 3.29 ± 0.1, the protein stability index (pdr5∆) stood at 3.42 ± 0.14, the protein stability index (san1∆) is 3.13 ± 0.076 and the protein stability index (ubr1∆) is 3.25 ± 0.17.
In the same order, the values of LEGEEIKSEEKKGKSSD [RPN1] are 2.19 ± 0.077, 2.17 ± 0.07, 3.05 ± 0.084 and 2.4 ± 0.043.
LEKERSILDDIKLSLKD [SMC4]: the protein stability index by setting is: (pdr5∆) 2.85 ± 0.14; (san1∆) 2.43 ± 0.17; (ubr1∆) 2.91 ± 0.11.
With LENSSRSPRVVTNALDN [NUT1], the protein stability index runs as follows: (doa10∆) 2.85 ± 0.06; (pdr5∆) 2.51 ± 0.058; (san1∆) 2.279 ± 0.016; (ubr1∆) 2.74 ± 0.057.
In the same order, the values of LEQLAQHTTESDNISRK [RPB2] are 3.33 ± 0.12, 3.35 ± 0.12, 3.01 ± 0.076 and 3.11 ± 0.13.
In the same order, the values of LERVKANAAKRAEAKAQ [RPL21A] are 3.14 ± 0.097, 3.25 ± 0.12, 3.36 ± 0.061 and 3.14 ± 0.11.
In the same order, the values of LESEAQKKATMSAEEAL [RPC34] are 3.13 ± 0.096, 3.26 ± 0.14, 3.04 ± 0.092 and 3.58 ± 0.12.
Consider LESINEGNQIIVFVHSR [BRR2], for which the protein stability index came to 1.76 ± 0.073 (doa10∆), 1.88 ± 0.064 (pdr5∆), 1.62 ± 0.066 (san1∆) and 1.76 ± 0.071 (ubr1∆).
As for LESIQKTKEAVAALKAV [RPL4A], the protein stability index by setting is: (pdr5∆) 3.37 ± 0.2; (san1∆) 2.82 ± 0.27; (ubr1∆) 2.88 ± 0.17.
For the sequence LESTIAETQGSKVVIDS [IRR1], the protein stability index (doa10∆) was 2.9 ± 0.1, the protein stability index (pdr5∆) was found to be 3.03 ± 0.14, the protein stability index (san1∆) was found to be 3.06 ± 0.12 and the protein stability index (ubr1∆) worked out at 2.98 ± 0.12.

Values taken from the supplement of paper PMC9732359.
